Measurements: patent US20250381289A1 (Genmab, published 2025)

How the values were obtained:
[1] = target: T1, EGFR on EGFR and cMET co-expressed tumor cell lines (UniProt P00533 25-1210, limits assumed); test: flow cytometry, EBC-1 cells (co-express EGFR and cMET; both arms contribute)
T1 construct: whole, on cells

[2] = target: T2, cMET on EGFR and cMET co-expressed tumor cell lines (UniProt P08581 25-1390, limits assumed); test: as above
T2 construct: whole, on cells
Target sequence in this assay (P08581 25-1390 limits assumed): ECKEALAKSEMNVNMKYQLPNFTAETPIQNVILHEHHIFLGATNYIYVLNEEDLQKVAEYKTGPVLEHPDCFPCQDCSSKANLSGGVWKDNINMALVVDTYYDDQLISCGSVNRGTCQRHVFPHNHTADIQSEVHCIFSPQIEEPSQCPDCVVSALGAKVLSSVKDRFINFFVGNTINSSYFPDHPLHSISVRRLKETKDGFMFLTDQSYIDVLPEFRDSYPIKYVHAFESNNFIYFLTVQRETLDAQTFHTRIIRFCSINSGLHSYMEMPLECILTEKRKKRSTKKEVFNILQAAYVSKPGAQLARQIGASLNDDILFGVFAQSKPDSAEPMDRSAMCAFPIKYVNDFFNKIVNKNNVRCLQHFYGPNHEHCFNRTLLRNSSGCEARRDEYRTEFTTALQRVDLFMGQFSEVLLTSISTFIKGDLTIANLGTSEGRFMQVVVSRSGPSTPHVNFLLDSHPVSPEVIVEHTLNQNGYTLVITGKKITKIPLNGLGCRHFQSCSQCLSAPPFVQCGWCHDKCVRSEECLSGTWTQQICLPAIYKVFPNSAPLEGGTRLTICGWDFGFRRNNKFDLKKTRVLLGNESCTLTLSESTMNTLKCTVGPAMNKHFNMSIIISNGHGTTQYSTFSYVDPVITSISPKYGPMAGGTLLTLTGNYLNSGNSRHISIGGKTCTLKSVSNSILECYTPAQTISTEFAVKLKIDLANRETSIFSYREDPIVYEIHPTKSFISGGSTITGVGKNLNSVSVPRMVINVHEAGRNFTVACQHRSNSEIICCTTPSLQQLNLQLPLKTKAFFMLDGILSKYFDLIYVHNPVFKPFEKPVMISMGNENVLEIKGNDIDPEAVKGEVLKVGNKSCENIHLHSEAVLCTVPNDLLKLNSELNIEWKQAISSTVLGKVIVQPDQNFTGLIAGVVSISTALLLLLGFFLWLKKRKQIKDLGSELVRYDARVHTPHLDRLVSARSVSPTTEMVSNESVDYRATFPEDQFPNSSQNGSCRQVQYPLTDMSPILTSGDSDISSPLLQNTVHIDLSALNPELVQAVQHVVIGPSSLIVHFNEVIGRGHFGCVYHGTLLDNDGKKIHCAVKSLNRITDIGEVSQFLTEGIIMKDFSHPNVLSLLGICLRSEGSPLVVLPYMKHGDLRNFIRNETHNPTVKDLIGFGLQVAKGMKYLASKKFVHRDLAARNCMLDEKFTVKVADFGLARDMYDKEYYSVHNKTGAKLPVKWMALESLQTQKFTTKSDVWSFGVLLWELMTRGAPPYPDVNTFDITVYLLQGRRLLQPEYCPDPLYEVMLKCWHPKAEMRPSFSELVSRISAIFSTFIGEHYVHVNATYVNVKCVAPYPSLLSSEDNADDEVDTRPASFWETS

[3] = target: T1, EGFR on EGFR and cMET co-expressed …; test: as above; remark: listed apart in the source
[4] = target: T2, cMET on EGFR and cMET co-expressed …; test: as above; remark: listed apart in the source
Human cMET = target: T3, Human cMET (human); test: ELISA, coated human cMET, anti-human Fc-HRP
T3 construct: recombinant protein; also called human cMET recombinant protein
T3 sequence (P08581 whole entry): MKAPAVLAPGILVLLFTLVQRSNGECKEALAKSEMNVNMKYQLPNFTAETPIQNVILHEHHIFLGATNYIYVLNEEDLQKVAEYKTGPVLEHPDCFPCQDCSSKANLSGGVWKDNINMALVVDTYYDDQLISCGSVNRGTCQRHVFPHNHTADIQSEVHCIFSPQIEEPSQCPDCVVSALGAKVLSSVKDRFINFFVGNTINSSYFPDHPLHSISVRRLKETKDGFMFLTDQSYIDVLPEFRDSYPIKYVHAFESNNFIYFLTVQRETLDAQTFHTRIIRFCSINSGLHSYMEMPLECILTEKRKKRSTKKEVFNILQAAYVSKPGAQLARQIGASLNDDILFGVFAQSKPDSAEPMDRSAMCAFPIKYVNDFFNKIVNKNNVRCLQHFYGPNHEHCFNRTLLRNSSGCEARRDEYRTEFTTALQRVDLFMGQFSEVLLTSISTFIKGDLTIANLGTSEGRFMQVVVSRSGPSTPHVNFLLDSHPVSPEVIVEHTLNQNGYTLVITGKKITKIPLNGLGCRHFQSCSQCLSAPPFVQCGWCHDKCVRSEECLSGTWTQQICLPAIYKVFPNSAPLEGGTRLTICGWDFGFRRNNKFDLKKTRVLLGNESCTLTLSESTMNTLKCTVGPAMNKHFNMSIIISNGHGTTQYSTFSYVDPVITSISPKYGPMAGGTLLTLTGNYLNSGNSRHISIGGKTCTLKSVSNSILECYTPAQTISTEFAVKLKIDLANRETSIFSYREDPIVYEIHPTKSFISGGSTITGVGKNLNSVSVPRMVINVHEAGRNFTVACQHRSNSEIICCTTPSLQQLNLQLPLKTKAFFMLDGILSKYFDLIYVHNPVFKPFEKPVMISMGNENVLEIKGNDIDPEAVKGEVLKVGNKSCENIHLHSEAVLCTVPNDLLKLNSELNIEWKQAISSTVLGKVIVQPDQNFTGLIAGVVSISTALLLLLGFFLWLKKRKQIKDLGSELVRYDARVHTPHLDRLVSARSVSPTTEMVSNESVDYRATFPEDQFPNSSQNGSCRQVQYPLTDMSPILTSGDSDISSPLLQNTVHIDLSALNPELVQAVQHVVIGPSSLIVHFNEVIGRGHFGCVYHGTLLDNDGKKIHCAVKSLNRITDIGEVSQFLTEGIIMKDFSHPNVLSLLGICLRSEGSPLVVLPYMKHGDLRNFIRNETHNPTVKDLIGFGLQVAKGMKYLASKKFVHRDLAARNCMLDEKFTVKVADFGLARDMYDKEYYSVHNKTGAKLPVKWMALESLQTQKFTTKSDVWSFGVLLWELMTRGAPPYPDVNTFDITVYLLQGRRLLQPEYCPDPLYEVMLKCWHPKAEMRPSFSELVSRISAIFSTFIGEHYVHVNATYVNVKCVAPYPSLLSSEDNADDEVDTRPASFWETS

[5] = target: T1, EGFR on EGFR and cMET co-expressed …; test: flow cytometry on EBC-1 cells (co-express EGFR and cMET), PE anti-human Fc; signal of the whole bispecific, not resolved by arm
[6] = target: T2, cMET on EGFR and cMET co-expressed …; test: as above
[7] = target: T1, EGFR on EGFR and cMET co-expressed …; test: flow cytometry, SNU-5 cells (co-express EGFR and cMET; both arms contribute)
[8] = target: T2, cMET on EGFR and cMET co-expressed …; test: as above
Target sequence in this assay (P08581 25-1390 limits assumed): as the sequence (P08581 25-1390 limits assumed) above

human EGFR-Fc = target: T4, human EGFR-Fc (human, UniProt P00533 25-645); test: blocking ELISA: coated human EGFR-Fc, antibody titrated, then EGF-His (blocked ligand), anti-His-HRP
T4 construct: not shown: Fc part, not described

[9] = target: T1, EGFR on EGFR and cMET co-expressed …; test: flow cytometry, EBC-1 cells (co-express EGFR and cMET; both arms contribute); remark: listed apart in the source
[10] = target: T2, cMET on EGFR and cMET co-expressed …; test: as above; remark: listed apart in the source
[11] = target: T1, EGFR on EGFR and cMET co-expressed …; test: flow cytometry, A431 cells (co-express EGFR and cMET; both arms contribute)
[12] = target: T2, cMET on EGFR and cMET co-expressed …; test: as above
Target sequence in this assay (P08581 25-1390 limits assumed): as above

Human EGFR = target: T5, Human EGFR (human, UniProt P00533); test: ELISA, plate coated with 100 ng/well human EGFR recombinant protein, HRP anti-human Fc, OD450
T5 construct: recombinant protein coated on the ELISA plate; also called human EGFR recombinant protein

[13] = target: T1, EGFR on EGFR and cMET co-expressed …; test: flow cytometry on CAL-27 cells (co-express EGFR and cMET), PE anti-human Fc; signal of the whole bispecific, not resolved by arm
[14] = target: T2, cMET on EGFR and cMET co-expressed …; test: as above
[15] = target: T1, EGFR on EGFR and cMET co-expressed …; test: flow cytometry on NCI-H292 cells (co-express EGFR and cMET), PE anti-human Fc; signal of the whole bispecific, not resolved by arm
[16] = target: T2, cMET on EGFR and cMET co-expressed …; test: as above
Target sequence in this assay (P08581 25-1390 limits assumed): as above

B1: Amivantamab (bispecific antibody, human IgG1, kappa)
heavy 1: not shown
light 1: not shown
heavy 2: not shown
light 2: DIQMTQSPSSVSASVGDRVTITCRASQGISNWLAWFQHKPGKAPKLLIYAASSLLSGVPSRFSGSGSGTDFTLTISSLQPEDFATYYCQQANSFPITFGQGTRLEIKRTVAAPSVFIFPPSDEQLKSGTASVVCLLNNFYPREAKVQWKVDNALQSGNSQESVTEQDSKDSTYSLSSTLTLSKADYEKHKVYACEVTHQGLSSPVTKSFNRGEC
notes: Bispecific positive control
EC50 (read off the curve) [1]: ~1 nM
EC50 (read off the curve) [2]: ~1 nM
EC50 (read off the curve) [3]: ~1 nM
EC50 (read off the curve) [4]: ~1 nM
EC50 (read off the curve) (Human cMET): ~1 nM
EC50 (read off the curve) [5]: ~2 nM
EC50 (read off the curve) [6]: ~2 nM
EC50 (read off the curve) [7]: ~2 nM
EC50 (read off the curve) [8]: ~2 nM
IC50 (read off the curve) (human EGFR-Fc): ~0.2 nM
EC50 (read off the curve) [9]: ~2 nM
EC50 (read off the curve) [10]: ~2 nM
EC50 (read off the curve) [11]: ~4 nM
EC50 (read off the curve) [12]: ~4 nM
EC50 (read off the curve) (Human EGFR): ~0.4 nM
EC50 (read off the curve) [13]: ~3 nM
EC50 (read off the curve) [14]: ~3 nM
EC50 (read off the curve) [15]: ~3 nM
EC50 (read off the curve) [16]: ~3 nM
